Article PMC7411133, “Phosphorylations of the Abutilon Mosaic Virus Movement Protein Affect Its Self-Interaction, Symptom Development, Viral DNA Accumulation, and Host Range” (Frontiers in Plant Science, 2020)
“Also recorded” adds a separate entry of the source.

Columns and labels:
[1] = target: AbMV movement protein (MP; BC1) (UniProt P21946); assay: acceptor photobleaching FRET, tag layout NC; details: sites T221,S223,S250
[2] = target: the molecule itself; assay: FRET or BRET; acceptor photobleaching FRET in living N. benthamiana leaf epidermal cells, 3 dpai; acceptor mVenus, donor mTurquoise2; four layouts (NN, NC, CN, CC); without and with local AbMV (DNA-A + DNA-BΔMP) infection; ROIs along the plasma membrane; p19 co-infiltrated

| Molecule | other: mean FRET efficiency ([1]; reference: MPWT with MPWT) | other: mean FRET efficiency ([1]; reference: MPAAA with MPAAA) | mean FRET efficiency (layout NC, with AbMV) [2] [%] | mean FRET efficiency (layout NC, without AbMV) [2] [%] |
| --- | --- | --- | --- | --- |
| AbMV movement protein (MP; BC1) (from UniProt P21946) MPAAA with MPAAA | stronger; reference 36; also recorded: stronger; reference 28 | – | – | – |
| AbMV movement protein (MP; BC1) (from UniProt P21946) MPDDD with MPDDD | same; reference 28 | weaker; reference 50; also recorded: weaker; reference 42 | – | – |
| AbMV movement protein, full-length, T221A/S223A/S250A (MP^AAA), fused to mVenus or mTurquoise2 (natural protein, Abutilon mosaic virus, UniProt P21946 1-293, looked up, Movement protein (MP; BC1) of Abutilon mosaic virus, full-length; Two copies expressed from one T-DNA (pFRETtv-2-in-1), one with mVenus and one with mTurquoise2, in four layouts (NN, NC, CN, CC); each copy carries one fluorescent protein at one end; also called mVenus::MP^AAA; MP^AAA::mVenus; source: N. benthamiana leaf epidermis, transiently expressed after agro-infiltration, in living cells; …) MDSQLVNPPNAFNYIESHRDEYQLSHDLTEIILQFPSTAAQLTARLSRSCMKIDHCVIEYRQQVPINATGSVIVEIHDKRMTDNESLQASWTFPIRCNIDLHYFSASFFSLKDPIPWKLYYKVCDTNVHQRTHFAKFKGKLKLSTAKHSVDIPFRAPTVRILSKQFSEKDVDFSHVDYGKWERKPIRCASMSRIGLRGPIEIRPGESWASRSTIGTAQPDADAEMENELHPYRHLNRLGTSLLDPGESAAIVGDQRAEPNITMSMGQLNELVRTAVQECVNSNCQASQAKSLK | – | – | 42 | 50 |
| AbMV movement protein, full-length, T221D/S223D/S250D (MP^DDD), fused to mVenus or mTurquoise2 (natural protein, Abutilon mosaic virus, UniProt P21946 1-293, looked up, Movement protein (MP; BC1) of Abutilon mosaic virus, full-length; Two copies expressed from one T-DNA (pFRETtv-2-in-1), one with mVenus and one with mTurquoise2, in four layouts (NN, NC, CN, CC); each copy carries one fluorescent protein at one end; also called mVenus::MP^DDD; MP^DDD::mVenus; source: N. benthamiana leaf epidermis, transiently expressed after agro-infiltration, in living cells; …) MDSQLVNPPNAFNYIESHRDEYQLSHDLTEIILQFPSTAAQLTARLSRSCMKIDHCVIEYRQQVPINATGSVIVEIHDKRMTDNESLQASWTFPIRCNIDLHYFSASFFSLKDPIPWKLYYKVCDTNVHQRTHFAKFKGKLKLSTAKHSVDIPFRAPTVRILSKQFSEKDVDFSHVDYGKWERKPIRCASMSRIGLRGPIEIRPGESWASRSTIGTAQPDDDDEMENELHPYRHLNRLGTSLLDPGESADIVGDQRAEPNITMSMGQLNELVRTAVQECVNSNCQASQAKSLK | – | – | 30 | 14 |
| AbMV movement protein, full-length, wild type (MP^WT), fused to mVenus or mTurquoise2 (natural protein, Movement protein (MP; BC1) of Abutilon mosaic virus, full-length; Two copies expressed from one T-DNA (pFRETtv-2-in-1), one with mVenus and one with mTurquoise2, in four layouts (NN, NC, CN, CC); each copy carries one fluorescent protein at one end; also called BC1; mVenus::MP^WT; source: N. benthamiana leaf epidermis, transiently expressed after agro-infiltration, in living cells; not shown: …) MDSQLVNPPNAFNYIESHRDEYQLSHDLTEIILQFPSTAAQLTARLSRSCMKIDHCVIEYRQQVPINATGSVIVEIHDKRMTDNESLQASWTFPIRCNIDLHYFSASFFSLKDPIPWKLYYKVCDTNVHQRTHFAKFKGKLKLSTAKHSVDIPFRAPTVRILSKQFSEKDVDFSHVDYGKWERKPIRCASMSRIGLRGPIEIRPGESWASRSTIGTAQPDTDSEMENELHPYRHLNRLGTSLLDPGESASIVGDQRAEPNITMSMGQLNELVRTAVQECVNSNCQASQAKSLK | – | – | 28 | 36 |
